Experimental data reported in the DeepSol protein solubility set.

Experiment: soluble on expression in E. coli; label from the status in PepcDB or PDB records
With “MSLGKDVRFHTENWSYYPWRLWAEQFLQFEDWCLQASSKVPGIPLHVKRTVTFSTRQILDALSPSNFVLTNPDLLQETIRSNGQNLIRGTELAFQDFVEKITGSPPAGVENFIPGKQVAVTEGKVVYSNHLIELIQYTPQTEKVYKEPILILPAWIMKYYILDLLPENSLVNWLVRQGHTVFIVSWRNPTKEDRNIGLDDYYKLGAMDAINAVSNAIPHTKIHLMGYCLGGTLALLTAAAMAHDHDNRLKTLSLLAAQGDFIDAGELLLFITKSEVSFLKSMMWEQGYLDTKQMSGTFQMLRSYDLIWSKMVQDYMHGTQRGMIPLLAWNADATRMPYKMHSEYLEKLFLNNDFAEGRFILDGKPVVGENIRMPAFVVSTEKDHVAPWKSVYKTHLLINSDITFVLTNGGHNAGIVSEPGHEGRYYRIRERKMDSTYLDPTNWLKKAELREGSWWIAWHDWLVNHSSQKQVSAPKLDKNLPNAPGKYVLQKEGHHHHHH” the “soluble on expression in E. coli” value was “soluble”.
In the case of “MSLGKPEFYDFCVHAVPDGANAVEELSSLSRHLGYSGIALANHSDKLPSKKPVLPSIEGFEVFRGIELVEENPSKLHGLVGKFRSSMDVLIVHGGSEAVNRAALENPRVDILNHPAFDKSSGLNQVLAKAAAENGVAIGITLRPLLHSRGSRRIRMLSDLKANLELARKYDVPLVLCSDAMSCYDLRSPMETLAFAEVCGLEEDEALDALSTVPKKIIKKNRPGPGYVREGIEVLEGEGHHHHHH”, the “soluble on expression in E. coli” value is reported as “not soluble”.
In the case of “MSLGKQLAALPADEVVEQLELAVERFLIQRKIPDQTELGFILNHLHYQTKKGGAVGVQELNIDKNIHQIAVIGDLHGDAESTKYIFQKVLLNKTFMESGMAVFLGDYVDRGQHGINVLTSILAAKVVYGDRVITIRGNHESENLNRRYGFLDEVSRAYGHAFYHKTIAPFFKLLPVAYVASVTSHTTLANRILFVHGGLPRNATLDTLILRSKVDIPSSNDITDQRYTHSLENCLPEDAVQDILWSDPSQTVHGKDTLNDYTKNPRGAGILYSSEFYRKFATENRVLAMFRGHQVVKNGFRRDFFNHYTVFSSSDYVGMKNKGAYAVLDVRCMRTTITSEVDVIGLQNYKEVNLAHCIHAYPVVQKPENEGHHHHHH”, the “soluble on expression in E. coli” value is reported as “soluble”.
For “MSLGKYFGTDGVRGEANVELTPELAFKLGRFGGYVLSQHETERPKVFVARDTRISGEMLESALIAGLLSVGIEVYKLGVLATPGVSYLVRTEKASAGVMISASHNPALDNGIKFFGNDGFKLADDQELEIEALLDAPEDTLPRPSAEGLGTLVDYPEGLRKYEKFLVTTGTDLSGMTVALDTANGAASVSARDVFLDLNAEIAVIGEKPNGLNINDGVGSTRPEQLQELVKETGADLGLAFDGDSDRLIAVDETGEIVDGDRIMFIIGKYLSEKGLLAHNTIVTTVMSNLGFHKALDKQGINKAITAVGDRYVVEEMRSSGYNLGGEQSGHVIIMDYNTTGDGQLTAIQLAKVMKETGKSLSELAAEVTIYPQKLVNIRVENSMKERAMEVPAIANIIAKMEDEMAGNGRILVRPSGTEPLLRVMAEAPTDAEVDYYVDTIADVVRTEIGCDNEGHHHHHH”, the “soluble on expression in E. coli” value was “soluble”.
In the case of “MSLGMKSNEYNKGNYEAHKAYYAGTYEYGTDYDVEDDLYSLEFDDELLNDELEYLEDIGEPFYYEDLDNDFDNTLENQVEKDTYAALENKLRKYISKYNCYFGIYFVDLESGKEFGINDTEEFFAASTFKIPLNLYVYDMIRKGMLDPMTSLEYTEEDFEGGTGIIWNNESFGKTFTIKELLRLSIVYSDNVAVNMLLRCVGKANVKEYMRRLGGVVVDDGKNVSCPRDMAMYLKEVYELSENGDPWGRELVQNMINTKFYDRLPVLLPKNLKIAHKTGNYTGVVHDVGIVYAEKPYIVVVMTKNVKNGQSANKAIANISKMIYDYVVKQSGKDEGHHHHHH”, the “soluble on expression in E. coli” value is reported as “soluble”.
With “MSLGNSRSRVGRSFCSQFLPEEQAEIDQLFDALSSDKNSPNVSSKSFSLKALQNHVGEALPPEMVTRLYDGMRRVDLTGKAKGPSENVSQEQFTASMSHLLKGNSEEKSLMIMKMISATEGPVKAREVQKFTEDLVGSVVHVLSHRQELRGWTGKEAPGPNPRVQVLAAQLLSDMKLQDGKRLLGPQWLDYDCDRAVIEDWVFRVPHVAIFLSVVICKGFLVLCSSLDLTTLVPERQVDQGRGFESILDVLSVMYINAQLPREQRHRWRLLFSSVLHGHSFSQLCGHITHRGPCVAVLEDHDKHVFGGFASCSWEVKPQFQGDNRCFLFSICPSMAVYTHTGYNDHYMYLNHGQQTIPNGLGMGGQHNYFGLWVDVDFGKGHSRAKPTCTTYNSPQLSAQENFQFDKMEVWAVGDPSEEQLAKGNKSILDADPEAQALLEISGHSRHSEGLREVPDDEGHHHHHH” the “soluble on expression in E. coli” value was “soluble”.
